Molecular target: T1, recombinant GST-Gαi3 (Rattus norvegicus, UniProt P08753)
T1 construct: A fusion protein was constructed consisting of full-length Gαi3 and gluthatione S-transferase (GST); made in house; host or cells: Escherichia coli BL21
Assay: SPOT peptide dot blot overlay with recombinant GST-Gαi3
Format: binding
Conditions: spotted 25 mers overlaid with GST-Gαi3 10 μg/ml
Description: FIG. 4 Dot blot analysis of conserved amino acids (core element of SEQ ID No. 1, 2, extended sequences SEQ ID No. 4 and 5) in the Reggai sequence. Spotted peptides containing the Reggai sequence (25 mers) of RIIβ (Reg) (SEQ ID No. 7), its mutant functional variant (SEQ ID No. 8) and non-functional peptides not containing the Reggai core element of SEQ ID No. 1 variant (SEQ ID No. 9 to 15) (exchanged amino acids are underlined) were overlaid with recombinant GST-Gαi3. The box indicates the Reggai sequence. Densitometric analysis of the average of two independent dot blot experiments is shown as bar graph. […] SEQ ID No. 9 to 15 in FIG. 4 (2nd to 7th and 9th sequence) are non-inventive comparative peptides.
Overlapping peptides either of the wild type PKA regulatory subunit RIIβ (accession number: NP_002727) or peptides containing substitutions of conserved amino acids in the Reggai sequence were SPOT-synthesized (Synthetic peptide arrays on membrane supports) on distinct coordinates of a cellulose membrane (shown in FIG. 1c; starting from the N-terminus of RegIIβ with amino acid 1-25 [coordinate A1], amino acid 6-30 [coordinate A2], etc.). […] Interactions were detected with rabbit anti-GST and secondary horseradish peroxidase antibodies by a procedure identical to immunoblotting (IB), (see Stefan et al., J. Am. Soc. Nephrol. 18, 199-212 (2007)). […]

T1 sequence (P08753 whole entry, the tested form may be a part): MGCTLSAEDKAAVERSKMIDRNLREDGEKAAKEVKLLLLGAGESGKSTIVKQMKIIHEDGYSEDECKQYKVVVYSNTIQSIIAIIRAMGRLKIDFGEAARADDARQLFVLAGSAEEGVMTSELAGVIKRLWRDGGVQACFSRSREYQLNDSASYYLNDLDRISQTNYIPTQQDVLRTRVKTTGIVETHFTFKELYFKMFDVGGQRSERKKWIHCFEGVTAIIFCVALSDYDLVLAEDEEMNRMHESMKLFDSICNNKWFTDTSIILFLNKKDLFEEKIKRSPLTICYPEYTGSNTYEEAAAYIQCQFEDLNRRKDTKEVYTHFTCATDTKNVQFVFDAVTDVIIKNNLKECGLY

QGASADSFFIVESGE (listed as Homo sapiens) [SEQ ID No. 8]
binding of spotted peptide to recombinant GST-Gαi3 (dot blot): functional
